Assay [1] concerns the target T1, proTGFβ1 C4S (Homo sapiens, UniProt P01137, C33S). Kind of assay: HDX-MS determination of binding regions. As to conditions: 1:3 molar ratio of proTGFβ1 to Fab.
Excerpt: Briefly, HDX-MS relies on the exchange of the protein backbone amide hydrogens with deuterium in solution. The backbone amide hydrogens involved in weak hydrogen bonds or located at the surface of the protein may exchange rapidly while those buried in the interior or those involved in stabilizing hydrogen bonds exchange more slowly. Based on the mass difference between hydrogen (1 Da) and deuterium (2 Da), which can be detected for example by mass spectrometry, the H-D exchange can be monitored overtime, Thus, by measuring HDX rates of backbone amide hydrogens, one can obtain information on protein dynamics, conformation and protein-protein interaction such as antibody-antigen-binding.
In HDX-MS, the regions of an antigen that are tightly bound by an antibody are protected from proton exchange, due to protein-protein interaction, while regions that are exposed to solvent can readily undergo proton exchange. Based on this, binding regions within the antigen, which are protected by the specific binding of the antibody, were identified.
For assay [2], the target named is T1, proTGFβ1 C4S. Briefly: Octet Red384 pH-sensitivity of binding (dissociation at pH 7 and pH 5). To be noted: dissociation at pH 7 vs pH 5. As to the method: The antibodies were tested against sensor-immobilized human proTGFβ1 C4S, which contains a mutation in the prodomain to facilitate proTGFβ1 expression without disulfide linkage to a presentation molecule.
Then, the tips were moved into an activation solution for 5 minutes. […] The activation solution is prepared immediately before use in the experiment. After tip activation, the tips were loaded for 3 minutes with a 10 ug/mL solution of human proTGFβ1 C4S in 10 mM sodium acetate buffer pH 5. After loading, the tips were quenched in ethanolamine pH 8.5 for 15 minutes. The tips were then baseline/blocked with a 20 minute incubation in 1× enhanced kinetics buffer. 1× enhanced kinetics buffer (1×EKB) is 1× kinetics buffer (ForteBio part no 18-1105 diluted from 10× with PBS) with the addition of 2% BSA (Sigma A3059-100G), 0.5 M NaCl (FisherS671-10), and 0.09% tween-20 (P7949-500M). […] The dissociation was performed in 1×KB at pH 7 and pH 5.

For the next assay, the system named is Cell-associated proTGFβ1. Briefly: Octet binding, cell average of hGARP and hLRRC33 complexes. On the set-up: species or system human. To be noted: average KD of (E) and (F), read-out: (G) Cell AVRG. The source says:
Column (A) of the table provides monoclonal antibodies with discrete amino acid sequences. […] Columns (B), (C), (E) and (F) provide affinities of each of the listed antibodies, measured in KD, towards the antigen complex as indicated, respectively. […] Average KD values calculated from (B) and (C) are shown in the corresponding column (D), which collectively represents affinities of the antibodies to ECM- or matrix-associated proTGFβ1 complexes. Similarly, Average KD values calculated from (E) and (F) are shown in the corresponding column (G), which collectively represents affinities of the antibodies to cell-surface or cell-associated proTGF complexes. Finally, relative ratios between the average KD values from columns (D) and (G) are expressed as fold bias” in column (H). Thus, the greater the numerical of column (H) is, the greater bias exists for the particular antibody, when comparing binding preferences of the antibody for matrix-associated complexes to cell-surface complexes. This is one way of quantitatively representing and comparing inherent bias of antibodies to their target complexes. Such analyses may be useful in guiding the selection process for a candidate antibody for particular therapeutic use.
(Biolayer interferometry detects binding as a change in optical thickness at a sensor tip.)

Assay [3] has as its system TGFβ signaling (Smad2/3 phosphorylation; Col1a1, Col3a1, Fn1). Briefly: Col4a3−/− genetic model of Alport syndrome (kidney pSmad2/3 ELISA, qPCR). It counts as in vivo, mouse. The text has this: The murine Col4a3−/− model is an established genetic model of autosomal recessive Alport syndrome. Alport mice lack a functional collagen 4A3 gene (Col4A3−/−) and therefore cannot form normal type IV collagen trimers, which require α3, α4, and α5 chains. Col4a3−/− mice develop fibrosis in the kidney consistent with renal fibrosis in human patients, including interstitial fibrosis and tubular atrophy, and Col4a3−/− mice develop end-stage renal disease (ESRD) between 10 and 30 week of age, depending on the genetic background of the mouse. The structural and functional manifestation of renal pathology in Col4a3−/− mice, combined with the progression to ESRD make Col4a3−/− mice an ideal model to understand kidney fibrosis. Previous reports point to the importance of the TGFβ signaling pathway in this process, and treatment with either […], a known activator of TGFβ, or with a TGFβ ligand trap has been reported to prevent renal fibrosis and inflammation in Alport mice (Hahm et al. (2007) The American Journal of Pathology, 170(1): 110-125).
F1 offspring from Col4a3+/− males on a 129/Sv genetic background crossed to Col4a3+/− females on a C57/Bl6 genetic were employed for the study.
It is well documented that TGFβ receptor activation leads to a downstream signaling cascade of intra cellular events, including phosphorylation of Smad2/3. […] FIG. 7A provides a graph showing relative ratios of phosphorylated vs. total (phosphorylated and unphospohrylated) Smad2/3.
An IgG was used as negative control in both heterozygous (Col4a3+/−; Het) and knock out (Col4a3−/−; KO) mice. Following six weeks of antibody treatment (12 weeks after birth), animals were sacrificed, and the kidneys were collected for analyses.
To assess the functional effect of TGFβ inhibition, a third study was carried out in the Col4a3−/− model of kidney fibrosis. […] Treatment effect was assessed by gene expression, which was evaluated by quantitative polymerase chain reaction (qPCR) using cDNA generated from the kidneys of mice in this study.
Background: An ELISA detects its analyte on a solid surface through an enzyme-linked reagent.

In assay [4] the test system is liver fibrosis (pSmad2/3, hydroxyproline, type I collagen). To be noted: CDHFD mice, weeks 4-12.
Excerpt: The Choline deficient high fat diet (CDHFD) is an established dietary model of Non-Alcoholic steatohepatitis (NASH). In this model, male C57BL/6J mice are fed a choline deficient, 0.1% Methionine, high fat diet for 12 weeks. Three to six weeks after the start of the CDHFD, expression of α-sma protein (a marker for activation of hepatic stellate cells) increases and the development of hepatic fibrosis is accompanied by an increase in the hydroxyproline content accompanied by a rise in intrahepatic collagen synthesis and deposition (Matsumoto et. al, Int J Exp Pathol. 2013 April; 94(2):93-103).
Animals in the test cohorts were on the CDHFD for the duration of the study. A separate cohort of mice were administered a regular chow diet as a study control. […] Antibody test concentrations were as follows: 15 mg/kg, 5 mg/kg or 1.5 mg/kg twice a week (i.e., 30, 10, or 3 mg/kg/week) for a test duration of 8 weeks (i.e., weeks 4 thru 12). An IgG isotype antibody was used as a negative control at 15 mg/kg twice weekly (30 mg/kg/week). Following 8 weeks of dosing, animals were sacrificed and livers collected for analyses.
Serum measurements were also taken to determine the extent of antibody exposure during the study.
TGFβ1 receptor engagement leads to intracellular signaling events including the phosphorylation of Smad2 and Smad3.
Hydroxyproline is a signature amino acid for fibrillar collagens and comprises approximately 13.5% of the protein. […] Hydroxyproline acts as an important diagnostic indicator of the severity of fibrosis.
To assess the levels of type 1 collagen deposition in livers from CDHFD-treated mice, immunohistochemistry (IHC) protocols were developed for anti-mouse type I collagen antibody (rabbit polyclonal; Abcam; ab21286) using the Leica Bond RX staining system. Mouse liver was collected and fixed in 10% neutral buffered formalin (NBF) for 24 hours at room temperature. Fixed livers were then trimmed into 3-5 mm cross sections and stored in 70% ethanol until processed for paraffin infiltration and embedding. Paraffin embedded livers were sectioned at 4 μm and mounted on slides for IHC staining. Type 1 collagen primary antibody was used at a 5 μg/mL final concentration along with a matched isotype primary control (rabbit monoclonal IgG; Cell Signaling Technologies; 3900S). Epitope retrieval was performed with a pH 6 citrate buffer incubated at 100° C. for 20 minutes. […]
Stained slides were sent to HistoTox Labs for imaging with an Aperio AT2 whole slide scanner and collagen staining was analyzed using Visiopharm image analysis software. […] Total collagen positive area was measured using an intensity-based thresholding algorithm which classified each pixel of the image as high positive, medium positive, low positive, or negative staining area.

Entries after “also recorded” stand apart in the source; their conditions may differ.

T1 sequence (P01137 30-390 C33S): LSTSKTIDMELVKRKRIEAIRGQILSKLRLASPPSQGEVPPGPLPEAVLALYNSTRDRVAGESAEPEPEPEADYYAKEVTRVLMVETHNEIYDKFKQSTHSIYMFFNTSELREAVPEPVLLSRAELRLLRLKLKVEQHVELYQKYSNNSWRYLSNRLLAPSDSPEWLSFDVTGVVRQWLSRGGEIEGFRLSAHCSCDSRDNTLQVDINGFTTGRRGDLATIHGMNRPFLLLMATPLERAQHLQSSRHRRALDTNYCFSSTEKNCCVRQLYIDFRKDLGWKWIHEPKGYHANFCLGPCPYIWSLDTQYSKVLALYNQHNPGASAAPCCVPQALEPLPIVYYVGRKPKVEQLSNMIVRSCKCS

B1: Ab2: isoform-selective inhibitor of TGFβ1 activation; VH SEQ ID NO: 13, VL SEQ ID NO: 15; human IgG4 (antibody, V domains shown)
VH: EVQLLESGGGLVQPGGSLRLSCAASGFTFADYAMTWVRQAPGKGLEWVSAISGSGAATYFADSVKGRFTISRDNSKNTLYLQMNSLRAEDTAVYYCARVSSGHWDFDYWGQGTLVTVSS
VL: DIQLTQSPSSLSASVGDRVTITCRASQSISSYLNWYQQKPGKAPKLLIYAASNLQSGVPSRFSGSGSGTDFTLTISSLQPEDFATYYCQQTYTVPLTFGGGTKVEIK
modifications: human IgG4 constant regions
With B1, the “Regions of proTGFβ1 protected from H/D exchange upon Fab binding (binding regions 1, 2, 3)” value with proTGFβ1 C4S [1] is recorded as “LREAVPE; also recorded: WKWIHEPKGYHANFCLG”. For the same molecule, in the assay with proTGFβ1 C4S [2], the “pH sensitivity of binding” value was “Ab2 is pH-sensitive”. In addition, the Kd in the assay on Cell-associated proTGFβ1 is 0.643 nM. Further, the “Expression of Col1a1, Col3a1 and Fn1 in kidney (qPCR)” value in assay [3] (5 mg/kg i.p. twice a week from week 6 to week 14, Col4a3−/− mice) is “significantly reduced the expression of Col1a1 and Col3a1; also recorded: Expression of Fn1 showed a similar trend in Ab2-treated Col4a3−/− mice, though this effect was not statistically significant”. Further, the “Relative ratio of phosphorylated vs. total Smad2/3 in whole kidney lysates” value in assay [3] (i.p. twice weekly for six weeks from week 6, Ab3 5 or 1.5 mg/kg, Ab2 1.5 mg/kg, vs IgG treated Col4a3−/− mice) is on record as “significant reduction in relative phosphorylation of Smad2/3”; in assay [3] (single 10 mg/kg i.p. dose 48 hours before sacrifice, 9 week old Col4a3−/− mice), “sufficient to significantly inhibit pSmad2/3 signaling”. The “Relative ratio of phosphorylated Smad2/3 in liver lysates (ELISA)” value in assay [4] (15, 5 or 1.5 mg/kg i.p. twice a week) was “significantly reduced the relative ratio of phosphorylated Smad2/3 compared to IgG control; also recorded: inverse correlation between serum levels of Ab2 and phosphorylated Smad2/3; also recorded: significantly reduces phosphorylation of Smad2/3 as compared to Ab3 and IgG treated mice on CDHFD”. Also, in assay [4] (i.p. twice a week, vs IgG control), the “Liver fibrosis as measured by hydroxyproline levels” value is given as “marked reduction in collagen deposition”.

The record behind these values is US20210340238A1, “TGFß1 INHIBITORS AND USE THEREOF” (Scholar Rock, Inc., priority 2018, published 2021).
